Measured values taken from PMC10592472 (Cell reports, 2023).
Where two headings read alike, the source gives them in different places. Values belong to the molecule of their own block, whether it stands above or below them.

Legend:
[1] = target: LFA1 (αLβ2) (mouse (endogenous in primary T cells)) (UniProt P24063); experiment: single-molecule imaging
[2] = target: LFA1 (αLβ2) (mouse (endogenous in primary T cells)) (UniProt P24063); experiment: single-molecule imaging; remark: listed apart in the source
[3] = target: LFA1 (αLβ2) (mouse (endogenous in primary T cells), UniProt P24063 24-1162; P11835 24-771); experiment: flow cytometry on cells
LFA1 (αLβ2), sequence (P24063 24-1162, chain 1 of 2): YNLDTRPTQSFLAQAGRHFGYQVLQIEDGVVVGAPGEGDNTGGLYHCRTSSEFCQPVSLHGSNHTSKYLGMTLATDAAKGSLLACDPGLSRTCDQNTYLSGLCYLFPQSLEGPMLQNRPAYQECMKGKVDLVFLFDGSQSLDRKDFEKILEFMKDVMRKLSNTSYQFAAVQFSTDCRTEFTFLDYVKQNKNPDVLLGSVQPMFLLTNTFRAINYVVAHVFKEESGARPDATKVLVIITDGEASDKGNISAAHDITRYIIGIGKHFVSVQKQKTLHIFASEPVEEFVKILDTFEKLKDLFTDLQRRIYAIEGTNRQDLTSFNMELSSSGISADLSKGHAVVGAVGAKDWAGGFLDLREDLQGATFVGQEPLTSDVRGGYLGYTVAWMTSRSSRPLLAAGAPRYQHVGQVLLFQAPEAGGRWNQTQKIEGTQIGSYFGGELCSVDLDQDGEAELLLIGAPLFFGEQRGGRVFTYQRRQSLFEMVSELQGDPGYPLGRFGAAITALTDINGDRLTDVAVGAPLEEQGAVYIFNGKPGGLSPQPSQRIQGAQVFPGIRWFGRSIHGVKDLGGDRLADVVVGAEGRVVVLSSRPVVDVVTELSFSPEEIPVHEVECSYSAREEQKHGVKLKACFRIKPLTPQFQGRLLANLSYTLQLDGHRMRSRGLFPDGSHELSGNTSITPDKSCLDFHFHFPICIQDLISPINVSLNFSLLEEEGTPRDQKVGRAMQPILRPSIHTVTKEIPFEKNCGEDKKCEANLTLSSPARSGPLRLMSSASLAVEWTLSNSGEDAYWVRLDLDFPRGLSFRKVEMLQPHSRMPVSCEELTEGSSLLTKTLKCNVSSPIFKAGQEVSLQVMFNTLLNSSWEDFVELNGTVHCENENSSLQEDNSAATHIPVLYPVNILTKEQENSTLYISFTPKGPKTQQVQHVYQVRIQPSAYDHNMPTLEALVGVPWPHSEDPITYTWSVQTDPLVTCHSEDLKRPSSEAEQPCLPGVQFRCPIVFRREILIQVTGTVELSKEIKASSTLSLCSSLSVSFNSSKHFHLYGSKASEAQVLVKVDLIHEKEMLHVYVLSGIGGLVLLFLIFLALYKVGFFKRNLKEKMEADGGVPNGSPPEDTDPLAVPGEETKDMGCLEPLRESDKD
LFA1 (αLβ2), sequence (P11835 24-771, chain 2 of 2): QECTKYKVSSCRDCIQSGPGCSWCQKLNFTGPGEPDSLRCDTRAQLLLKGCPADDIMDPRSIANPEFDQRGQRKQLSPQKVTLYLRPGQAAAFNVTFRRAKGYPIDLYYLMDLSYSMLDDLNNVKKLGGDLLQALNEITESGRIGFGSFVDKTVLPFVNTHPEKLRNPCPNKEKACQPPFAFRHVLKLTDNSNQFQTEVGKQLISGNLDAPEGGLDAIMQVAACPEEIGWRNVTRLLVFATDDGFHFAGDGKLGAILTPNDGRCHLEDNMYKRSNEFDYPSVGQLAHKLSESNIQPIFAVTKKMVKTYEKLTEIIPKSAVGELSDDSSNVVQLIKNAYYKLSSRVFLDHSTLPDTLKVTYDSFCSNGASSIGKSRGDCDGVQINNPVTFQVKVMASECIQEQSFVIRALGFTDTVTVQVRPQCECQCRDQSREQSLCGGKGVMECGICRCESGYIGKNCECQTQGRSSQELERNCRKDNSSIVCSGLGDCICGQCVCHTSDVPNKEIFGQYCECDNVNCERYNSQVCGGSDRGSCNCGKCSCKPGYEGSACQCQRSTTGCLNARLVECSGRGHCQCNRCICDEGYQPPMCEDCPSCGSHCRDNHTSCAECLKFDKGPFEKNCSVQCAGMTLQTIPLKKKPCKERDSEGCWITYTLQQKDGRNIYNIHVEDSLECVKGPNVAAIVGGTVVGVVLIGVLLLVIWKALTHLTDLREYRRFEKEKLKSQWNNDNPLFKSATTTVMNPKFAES

LFA1 (αLβ2) (mouse (endogenous in primary T cells)), sequence (P24063 24-1162, chain 1 of 2): as the sequence (P24063 24-1162, chain 1 of 2) above
LFA1 (αLβ2) (mouse (endogenous in primary T cells)), sequence (P11835 24-771, chain 2 of 2, further chain): as the sequence (P11835 24-771, chain 2 of 2) above

- koff [1]: 0.398 s⁻¹
- koff [2]: 0.03 s⁻¹
Molecule: mouse ICAM1-GPI (from UniProt P13597 28-537) (ligand)

- fold binding against WT T cells (Rasa3/Sipa1-KO T cells, Mn2+) [3]: 2 fold
B1: Mouse ICAM1-Fc (Fc fusion, UniProt P13597 28-485, looked up)
chain: QVSIHPREAFLPQGGSVQVNCSSSCKEDLSLGLETQWLKDELESGPNWKLFELSEIGEDSSPLCFENCGTVQSSASATITVYSFPESVELRPLPAWQQVGKDLTLRCHVDGGAPRTQLSAVLLRGEEILSRQPVGGHPKDPKEITFTVLASRGDHGANFSCRTELDLRPQGLALFSNVSEARSLRTFDLPATIPKLDTPDLLEVGTQQKLFCSLEGLFPASEARIYLELGGQMPTQESTNSSDSVSATALVEVTEEFDRTLPLRCVLELADQILETQRTLTVYNFSAPVLTLSQLEVSEGSQVTVKCEAHSGSKVVLLSGVEPRPPTPQVQFTLNASSEDHKRSFFCSAALEVAGKFLFKNQTLELHVLYGPRLDETDCLGNWTWQEGSQQTLKCQAWGNPSPKMTCRRKADGALLPIGVVKSVKQEMNGTYVCHAFSSHGNVTRNVYLTVLYHSQNN
